According to patent publication US20060211084A1 (TH NITRATE ELIMINATION, published 2006):

Biological target: the molecule itself
Experiment: gel filtration chromatography (self-association)

B1: simplified eukaryotic nitrate reductase (S-NaR1) (enzyme)
chain: MDSIVTEVTYGLEIKKIKDITELPFPVRQDSPLTEVLPTDLKTKDNFVARDPDLLRLTGSHPFNSEPPLTKLYDSGFLTPVSLHFVRNHGPVPYVPDENILDWEVSIEGMVETPYKIKLSDIMEQFDIYSTPVTMVCAGNRRKEQNMVKKGAGFNWGAAGTSTSLWTGCMLGDVIGKARPSKRARFVWMEGADNPANGAYRTCIRLSWCMDPERCIMIAYQQNGEWLHPDHGKPLRVVIPGVIGGRSVKWLKKLVVSDRPSENWYHYFDNRVLPTMVTPEMAKSDDRWWKDERYAIYDLNLQTIICKPENQQVIKISEDEYEIAGFGYNGGGVRIGRIEVSLDKGKSWKLADIDYPEDRYREAGYFRLFGGLVNVCDRMSCLCWCFWKLKVPLSELARSKDILIRGMDERMMVQPRTMYWNVTSMLNNWWYRVAIIREGESLRFEHPVVANKPGGWMDRVKAEGGDILEQKLISEEDLNSAVDHHHHHH
notes: Expressed in Pichia pastoris and purified by nickel IMAC; also called nitrate-reducing portion of Pichia angusta NAD(P)H: nitrate reductase
binding result: binds
